CN116370651A (SHANGHAI YUANZHI BIO TECH CO LTD, dated 2023)

Target: T1, 重组PSMA蛋白 (human, UniProt Q04609 44-750)
T1 construct: also called 人PSMA蛋白; 人PSMA重组蛋白
Test: SPR (Biacore); recombinant PSMA immobilised on CM5 chip, J591 as analyte at 0.125-4.0 μg/mL

T1 sequence (Q04609 44-750 limits assumed): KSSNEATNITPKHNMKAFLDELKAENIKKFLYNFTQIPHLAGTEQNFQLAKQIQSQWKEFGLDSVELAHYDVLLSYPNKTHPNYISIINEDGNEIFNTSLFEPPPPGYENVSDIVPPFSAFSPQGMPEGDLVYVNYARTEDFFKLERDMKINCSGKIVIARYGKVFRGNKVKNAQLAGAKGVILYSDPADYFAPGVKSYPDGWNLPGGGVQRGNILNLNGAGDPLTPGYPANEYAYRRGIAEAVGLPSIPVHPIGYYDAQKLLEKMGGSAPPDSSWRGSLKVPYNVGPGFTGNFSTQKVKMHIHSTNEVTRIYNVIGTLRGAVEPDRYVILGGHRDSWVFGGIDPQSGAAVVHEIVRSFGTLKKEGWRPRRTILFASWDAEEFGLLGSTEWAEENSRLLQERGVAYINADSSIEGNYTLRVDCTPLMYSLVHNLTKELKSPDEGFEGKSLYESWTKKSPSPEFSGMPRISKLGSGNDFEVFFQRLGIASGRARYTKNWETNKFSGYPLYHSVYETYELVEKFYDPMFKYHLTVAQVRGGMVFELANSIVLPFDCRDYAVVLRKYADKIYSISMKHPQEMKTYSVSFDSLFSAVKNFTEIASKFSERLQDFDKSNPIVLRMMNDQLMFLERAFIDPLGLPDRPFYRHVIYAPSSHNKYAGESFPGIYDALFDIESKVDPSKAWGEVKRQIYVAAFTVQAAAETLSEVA

Kd: 1.61 nM
B1: 人源化单抗J591 (antibody, V domains shown)
VH: EVQLQQSGPELKKPGTSVRISCKTSGYTFTEYTIHWVKQSHGKSLEWIGNINPNNGGTTYNQKFEDKATLTVDKSSSTAYMELRSLTSEDSAVYYCAAGWNFDYWGQGTTLTVSS
VL: DIVMTQSHKFMSTSVGDRVSIICKASQDVGTAVDWYQQKPGQSPKLLIYWASTRHTGVPDRFTGSGSGTDFTLTITNVQSEDLADYFCQQYNSYPLTFGAGTMLDLK
notes: Expressed from pcDNA3.0 in suspension host cells and purified on Protein A; also called 人源化抗体J591; J591单抗
